The record followed here is publication PMC5389741.

The assay addresses PGK1 (UniProt P00558). As to the kind of experiment: GST pull-down with purified proteins. Particulars: reference: WT GST-ARD1 with mTOR; sites S228.

As for “ARD1 (from UniProt P41227) GST-ARD1 S228A with mTOR”, the “binding against the reference” value was “stronger”.
